Our source for the Km and Vmax values is article PMC10952841, “Biocatalytic synthesis of 2′‐deoxynucleotide 5′‐triphosphates from bacterial genomic DNA: Proof of principle” (Biotechnology and Bioengineering, 2023).

Experiment in all cases: purified protein
What all share (assay type): biochemical, Escherichia coli

Substrate in series [1]: Nc1ccn([C@H]2C[C@H](O)[C@@H](COP(=O)(O)O)O2)c(=O)n1
The following applies: 2 mM ATP, 10 mM Mg acetate, 50 mM K acetate, 20 mM Tris-acetate, 37°C, three protein batches (N = 3).

Substrate in series [2]: Cc1cn([C@H]2C[C@H](O)[C@@H](COP(=O)(O)O)O2)c(=O)[nH]c1=O
Conditions: 2 mM ATP, 10 mM Mg acetate, 50 mM K acetate, 20 mM Tris-acetate, 37°C, three protein batches (N = 3).

Substrate in series [3]: Nc1nc2c(ncn2[C@H]2C[C@H](O)[C@@H](COP(=O)(O)O)O2)c(=O)[nH]1
Conditions: 2 mM ATP, 10 mM Mg acetate, 50 mM K acetate, 20 mM Tris-acetate, 37°C, three protein batches (N = 3).

Substrate in series [4]: Cc1cn([C@H]2C[C@H](O)[C@@H](COP(=O)(O)OP(=O)(O)O)O2)c(=O)[nH]c1=O
The following applies: 2 mM ATP, 10 mM Mg acetate, 50 mM K acetate, 20 mM Tris-acetate, 37°C.

Substrate in series [5]: Nc1ccn([C@H]2C[C@H](O)[C@@H](COP(=O)(O)OP(=O)(O)O)O2)c(=O)n1
Conditions: 2 mM ATP, 10 mM Mg acetate, 50 mM K acetate, 20 mM Tris-acetate, 37°C.

Substrate in series [6]: Nc1nc2c(ncn2[C@H]2C[C@H](O)[C@@H](CO[P@](=O)(O)OP(=O)(O)O)O2)c(=O)[nH]1
The following applies: 2 mM ATP, 10 mM Mg acetate, 50 mM K acetate, 20 mM Tris-acetate, 37°C.

Substrate in series [7]: Nc1ncnc2c1ncn2[C@H]1C[C@H](O)[C@@H](COP(=O)(O)OP(=O)(O)O)O1
Conditions: 2 mM ATP, 10 mM Mg acetate, 50 mM K acetate, 20 mM Tris-acetate, 37°C.

B1: cytidylate kinase (cmk) (Escherichia coli K-12) (protein)
chain: MTAIAPVITIDGPSGAGKGTLCKAMAEALQWHLLDSGAIYRVLALAALHHHVDVASEDALVPLASHLDVRFVSTNGNLEVILEGEDVSGEIRTQEVANAASQVAAFPRVREALLRRQRAFRELPGLIADGRDMGTVVFPDAPVKIFLDASSEERAHRRMLQLQEKGFSVNFERLLAEIKERDDRDRNRAVAPLVPAADALVLDSTTLSIEQVIEKALQYARQKLALA
notes: C-terminal 6x His tag (pET24a), kept; E. coli BL21(DE3) host; Ni-NTA
For the protein B1, in series [1], the Km came out at 314 ± 154 µM and the maximal velocity (Vmax) turned out to be 69.3 µmol/min/mg.

B2: thymidylate kinase (tmk) (Escherichia coli K-12) (protein)
chain: MRSKYIVIEGLEGAGKTTARNVVVETLEQLGIRDMVFTREPGGTQLAEKLRSLVLDIKSVGDEVITDKAEVLMFYAARVQLVETVIKPALANGTWVIGDRHDLSTQAYQGGGRGIDQHMLATLRDAVLGDFRPDLTLYLDVTPEVGLKRARARGELDRIEQESFDFFNRTRARYLELAAQDKSIHTIDATQPLEAVMDAIRTTVTHWVKELDA
notes: as for B1
On to B2, for which, in series [2], the Km is 150 ± 22 µM and the Vmax came to 39.4 µmol/min/mg.

B3: guanylate kinase (gmk) (Escherichia coli K-12) (protein)
chain: MAQGTLYIVSAPSGAGKSSLIQALLKTQPLYDTQVSVSHTTRQPRPGEVHGEHYFFVNHDEFKEMISRDAFLEHAEVFGNYYGTSREAIEQVLATGVDVFLDIDWQGAQQIRQKMPHARSIFILPPSKIELDRRLRGRGQDSEEVIAKRMAQAVAEMSHYAEYDYLIVNDDFDTALTDLKTIIRAERLRMSRQKQRHDALISKLLAD
notes: as for B1
B3: in series [3], the Km was 848 ± 402 µM and the Vmax was 76.2 µmol/min/mg.

B4: nucleotide disphosphate kinase (ndk; NDK) (Escherichia coli K-12) (protein)
chain: AIERTFSIIKPNAVAKNVIGNIFARFEAAGFKIVGTKMLHLTVEQARGFYAEHDGKPFFDGLVEFMTSGPIVVSVLEGENAVQRHRDLLGATNPANALAGTLRADYADSLTENGTHGSDSVESAAREIAYFFGEGEVCPRTR
notes: as for B1
For B4, the Km in series [4] is 2398 ± 1036 µM; in series [5], 543 ± 105 µM; in series [6], 431 ± 89 µM; in series [7], 1185 ± 87 µM.
